The source of these data is patent publication US20260070987A1.

Experiment [1] has as its target equine FcRn (large alpha subunit p51) / equine beta-2-microglobulin complex, biotinylated (equine) (UniProt P30441). Put plainly: SPR (Biacore), pH 6. Background: Surface plasmon resonance follows binding to a sensor surface in real time, without labels.
The target is the same in experiment [2]. As to the kind of experiment: SPR (Biacore), pH 7.4.

UniProt P30441, sequence (P30441 21-118, one chain of several): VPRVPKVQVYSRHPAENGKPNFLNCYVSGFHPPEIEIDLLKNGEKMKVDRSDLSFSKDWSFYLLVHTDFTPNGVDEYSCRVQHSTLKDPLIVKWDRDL

B1: equine IgG1 N434W (antibody, part only; not given: Variable domains, not shown: another chain or arm of the molecule)
constant: ASTTAPKVFALAPGCGTTSDSTVALGCLVSGYFPEPVKVSWNSGSLTSGVHTFPSVLQSSGFYSLSSMVTVPASTWTSETYICNVVHAASNFKVDKRIEPIPDNHQKVCDMSKCPKCPAPELLGGPSVFIFPPNPKDTLMITRTPEVTCVVVDVSQENPDVKFNWYMDGVEVRTATTRPKEEQFNSTYRVVSVLRIQHQDWLSGKEFKCKVNNQALPQPIERTITKTKGRSQEPQVYVLAPHPDELSKSKVSVTCLVKDFYPPEINIEWQSNGQPELETKYSTTQAQQDSDGSYFLYSKLSVDRNRWQQGTTFTCGVMHEALHWHYTQKNVSKNPGK
As for B1, the Kd in experiment [1] worked out at 0.00186 µM; in experiment [2], 7.31 µM.

B2: equine IgG1 N434F (antibody, part only; not given: variable domains, not shown: another chain or arm of the molecule)
constant: ASTTAPKVFALAPGCGTTSDSTVALGCLVSGYFPEPVKVSWNSGSLTSGVHTFPSVLQSSGFYSLSSMVTVPASTWTSETYICNVVHAASNFKVDKRIEPIPDNHQKVCDMSKCPKCPAPELLGGPSVFIFPPNPKDTLMITRTPEVTCVVVDVSQENPDVKFNWYMDGVEVRTATTRPKEEQFNSTYRVVSVLRIQHQDWLSGKEFKCKVNNQALPQPIERTITKTKGRSQEPQVYVLAPHPDELSKSKVSVTCLVKDFYPPEINIEWQSNGQPELETKYSTTQAQQDSDGSYFLYSKLSVDRNRWQQGTTFTCGVMHEALHFHYTQKNVSKNPGK
On to B2, for which the Kd in experiment [1] was determined as 0.00283 µM; in experiment [2] it was 14.6 µM.

Broadly, the Kd is a measure of binding affinity in units of concentration.
